# Reference: the supplement of paper PMC10724198
# ± gives the standard deviation of the averaged measurements.
# Key:
# Saccharomyces cerevisiae [1] = test: protein stability index of tFT-peptide fusion (C-terminal peptide) (PSI (0-1 scale)); higher = more stable (slower turnover)
# Description: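 MPS profiling in S. cerevisiae of the tFT-X12 degron library: putative degron peptides plus stable controls, 12 aa, fused to the C-terminus of a sfGFP-mCherry timer. Cells are FACS-sorted into 8 mCherry/sfGFP bins and deep-sequenced. PSI runs from 0 (unstable) to 1 (stable). Backgrounds are wild type, das1Δ and doa10Δ at 30 °C, and wild type, das1Δ, cdc34-1 and cdc53-1 at 37 °C; 2-3 technical replicates each.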
# Saccharomyces cerevisiae [2] = test: as above; details: genetic background: wild type; temperature: 30 C
# [3] = genetic background: cdc34-1, temperature: 37 C
# [4] = genetic background: cdc53-1, temperature: 37 C
# [5] = genetic background: das1 deletion, temperature: 30 C
# [6] = genetic background: das1 deletion, temperature: 37 C
# [7] = genetic background: doa10 deletion, temperature: 30 C
# [8] = genetic background: wild type, temperature: 30 C
# [9] = genetic background: wild type, temperature: 37 C
# 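Further: PSI is a weighted mean of sequencing reads over stability bins, variants kept only with over 10 reads, mCherry proximal and sfGFP distal, peptide attached via GGGS linker.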
Sequence,protein stability index (Saccharomyces cerevisiae [1]; [3]),protein stability index (Saccharomyces cerevisiae [1]; [4]),protein stability index (Saccharomyces cerevisiae [1]; [5]),protein stability index (Saccharomyces cerevisiae [1]; [6]),protein stability index (Saccharomyces cerevisiae [1]; [7]),protein stability index (Saccharomyces cerevisiae [1]; [8]),protein stability index (Saccharomyces cerevisiae [1]; [9]),protein stability index (Saccharomyces cerevisiae [2])
NKEEHQQKQRIH,0.636 ± 0.04,0.711 ± 0.02,0.663 ± 0.02,0.719 ± 0.031,0.619 ± 0.057,0.646 ± 0.049,0.698 ± 0.00079,0.461 ± 0.15
NKTTKNKKRKLS,0.467 ± 0.081,0.612 ± 0.048,0.697 ± 0.027,0.656 ± 0.0059,0.0924 ± 0.038,0.125 ± 0.067,0.173 ± 0.011,0.159 ± 0.014
NKYNQFKWHINH,0.624 ± 0.12,0.698 ± 0.014,0.624 ± 0.026,0.742 ± 0.019,0.134 ± 0.034,0.136 ± 0.0086,0.295 ± 0.031,0.295 ± 0.0036
NRLHYSPLYTIY,0.641 ± 0.087,0.735 ± 0.033,0.653 ± 0.0076,0.753 ± 0.0065,0.111 ± 0.011,0.153 ± 0.015,0.256 ± 0.0026,0.239 ± 0.0099
NSFASFVVVFVI,0.371 ± 0.018,0.437 ± 0.047,0.264 ± 0.034,0.512 ± 0.015,0.1956 ± 0.00071,0.227 ± 0.036,0.472 ± 0.03,0.34 ± 0.036
NTDRRNICKISS,0.493 ± 0.031,0.671 ± 0.059,0.631 ± 0.02,0.733 ± 0.0086,0.105 ± 0.0079,0.1084 ± 0.00051,0.169 ± 0.0083,0.163 ± 0.044
NTREGFIILARA,0.523 ± 0.014,0.537 ± 0.018,0.369 ± 0.03,0.573 ± 0.022,0.296 ± 0.0041,0.349 ± 0.066,0.5303 ± 0.0025,0.529 ± 0.065
PACFPPPSPFAP,0.643 ± 0.056,0.741 ± 0.026,0.712 ± 0.015,0.7326 ± 0.0022,0.718 ± 0.019,0.696 ± 0.029,0.725 ± 0.022,0.44 ± 0.034
PFDTPSHPNPLF,0.707 ± 0.034,0.789 ± 0.086,0.69 ± 0.026,0.777 ± 0.024,0.711 ± 0.026,0.729 ± 0.014,0.762 ± 0.019,0.744 ± 0.037
PFGYYLFVPVCY,0.29 ± 0.0094,0.343 ± 0.021,0.265 ± 0.029,0.3985 ± 0.00045,0.238 ± 0.0039,0.25 ± 0.027,0.364 ± 0.0044,0.349 ± 0.0044
PFLPFPPPLPAY,0.4873 ± 0.0045,0.553 ± 0.015,0.394 ± 0.026,0.5646 ± 0.0038,0.362 ± 0.0056,0.408 ± 0.018,0.5079 ± 0.0042,0.0909 ± 0.028
PFYAYHFSLSVY,0.13 ± 0.006,0.164 ± 0.0048,0.103 ± 0.028,0.227 ± 0.015,0.0245 ± 0.0025,0.0234 ± 0.0066,0.0924 ± 0.0037,0.0344 ± 0.01
PIFFFGRLLFFL,0.545 ± 0.045,0.592 ± 0.022,0.467 ± 0.0098,0.5856 ± 0.0046,0.3094 ± 0.0008,0.314 ± 0.014,0.499 ± 0.074,0.369 ± 0.016
PLCCFFLLVCSH,0.117 ± 0.022,0.166 ± 0.005,0.193 ± 0.019,0.2814 ± 0.002,0.165 ± 0.0015,0.176 ± 0.0079,0.221 ± 0.014,0.246 ± 0.023
PLFPPTDSPSPN,0.7098 ± 0.0063,0.729 ± 0.051,0.668 ± 0.025,0.724 ± 0.018,0.685 ± 0.025,0.648 ± 0.015,0.709 ± 0.029,0.727 ± 0.03
PLFVLTILLFLC,0.165 ± 0.042,0.314 ± 0.036,0.258 ± 0.051,0.367 ± 0.017,0.156 ± 0.0098,0.137 ± 0.013,0.179 ± 0.0024,0.1706 ± 0.00068
PLGGLVILLLSS,0.488 ± 0.017,0.541 ± 0.0075,0.349 ± 0.028,0.548 ± 0.014,0.194 ± 0.0033,0.224 ± 0.017,0.4074 ± 0.00071,0.293 ± 0.014
PLLALTSWLFFV,0.5467 ± 0.0033,0.6521 ± 0.0011,0.586 ± 0.012,0.689 ± 0.022,0.165 ± 0.0048,0.173 ± 0.0033,0.268 ± 0.0046,0.254 ± 0.008
PLPHTPAPPPFP,0.6774 ± 0.0011,0.728 ± 0.0098,0.6492 ± 0.0043,0.721 ± 0.036,0.674 ± 0.034,0.676 ± 0.033,0.6992 ± 0.0033,0.508 ± 0.043
PLSRLLPLYFLL,0.405 ± 0.015,0.547 ± 0.00061,0.548 ± 0.017,0.66444 ± 0.00057,0.0797 ± 0.0046,0.0647 ± 0.0097,0.0945 ± 0.018,0.0966 ± 0.0083
